In article PMC4982076, “lin28 proteins promote expression of 17∼92 family miRNAs during amphibian development”:

Assays:
[1] = molecular target: T1, Xrt-lin28a (Xenopus tropicalis, UniProt Q5EB47 34-177); assay: EMSA; conditions: Bmax 1.017; n=3; 60 mM KCl, 10 mM HEPES pH 7.6, 3 mM MgCl2, 5% glycerol, 1 mM DTT, 5 ug/ul heparin, 150 ng yeast total RNA; 30 min room temperature; 10% native PAGE
T1 sequence: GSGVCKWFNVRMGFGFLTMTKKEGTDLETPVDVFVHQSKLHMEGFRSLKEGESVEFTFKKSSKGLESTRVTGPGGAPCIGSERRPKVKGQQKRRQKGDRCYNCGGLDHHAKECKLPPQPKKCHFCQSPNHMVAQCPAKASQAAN

[2] = molecular target: T1, Xrt-lin28a; assay: EMSA; Bmax 0.962; n=3; 60 mM KCl, 10 mM HEPES pH 7.6, 3 mM MgCl2, 5% glycerol, 1 mM DTT, 5 ug/ul heparin, 150 ng yeast total RNA; 30 min room temperature; 10% native PAGE; conditions: protein: recombinant

L-let-7g
Kd [1]: 314 nM

UGCAAUUUUAUUUAGUUUGGUAGGAGAAAAAUUGC (structured_RNA) [L-mir-363]
Kd [2]: 448 nM
